Test results as given in publication PMC3817168.

Target: ChrB-His6 (Ochrobactrum tritici 5bvl1)
Assay: cross-linking; 8 µg purified protein, 0.1% glutaraldehyde, 20 mM NaCl, 10 mM KCl, 2 mM DTT, 20 mM Hepes pH 7.5, 30°C, 2 to 60 min; read by 10% SDS-PAGE or anti-His immunoblot; also with chr promoter DNA and/or Cr(VI), without effect

stoichiometry N: 2
Substance: ChrB-His6 (natural protein)
